# T1: murine CD40 (murine, UniProt P27512 20-193, limits assumed)
# T1 sequence (looked up): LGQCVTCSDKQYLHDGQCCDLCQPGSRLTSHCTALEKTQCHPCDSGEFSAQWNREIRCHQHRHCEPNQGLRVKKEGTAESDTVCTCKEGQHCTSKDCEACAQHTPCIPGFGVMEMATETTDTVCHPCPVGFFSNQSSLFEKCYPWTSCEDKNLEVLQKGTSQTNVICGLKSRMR
# Experiments:
# [1] = target: T2, human CD40 on the surface of PBMCs (human, UniProt P25942 21-277); test: cell-based or functional assay
# [2] = target: T2, human CD40 on the surface of PBMCs; test: cell-based or functional assay; remark: listed apart in the source
# [3] = target: T3, human FcγRIIIa, low affinity (158F) form, on CHO cells (human, UniProt P08637 17-254); test: flow cytometry, biotinylated antibody on CHO cells expressing FcγRIIIa 158F
# T3 construct: whole, on cells; Allotype with F at position 158 as printed; also called FcγRIIIa 158F
# T3 sequence (P08637 17-254): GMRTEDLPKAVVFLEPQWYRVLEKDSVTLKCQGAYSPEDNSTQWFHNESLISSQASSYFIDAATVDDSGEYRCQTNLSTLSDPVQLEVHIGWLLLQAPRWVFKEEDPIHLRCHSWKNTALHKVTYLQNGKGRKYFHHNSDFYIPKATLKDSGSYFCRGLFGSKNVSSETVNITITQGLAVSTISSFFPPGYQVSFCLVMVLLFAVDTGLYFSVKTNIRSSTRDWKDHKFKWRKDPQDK
# [4] = target: T4, human FcγRIIIa, high affinity (158V) form, on CHO cells (human, UniProt P08637 17-254); test: flow cytometry, biotinylated antibody on CHO cells expressing FcγRIIIa 158V
# T4 construct: whole, on cells; Position 158 probably counts on the mature protein; also called FcγRIIIa 158V
# T4 sequence (P08637 17-254 F176V): as the sequence (P08637 17-254) above, with F160V counted along it
# murine CD40 = target: T1, murine CD40; test: not described
# T2 sequence (P25942 21-277): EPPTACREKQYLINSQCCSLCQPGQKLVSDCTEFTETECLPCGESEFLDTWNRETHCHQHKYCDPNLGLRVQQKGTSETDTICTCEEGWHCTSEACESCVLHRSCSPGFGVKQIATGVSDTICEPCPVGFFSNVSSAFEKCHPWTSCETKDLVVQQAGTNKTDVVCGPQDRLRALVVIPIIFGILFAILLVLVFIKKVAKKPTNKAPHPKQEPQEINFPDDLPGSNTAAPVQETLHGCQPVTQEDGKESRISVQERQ
binder,measurement,setting,value
"SEA-CD40 (non-fucosylated humanized S2C6 antibody) (antibody, human IgG1, kappa, also called SEA40; non-fucosylated hS2C6; copies: 2 + 2) heavy: not shown light: DIQMTQSPSSLSASVGDRVTITCRSSQSLVHSNGNTFLHWYQQKPGKAPKLLIYTVSNRFSGVPSRFSGSGSGTDFTLTISSLQPEDFATYFCSQTTHVPWTFGQGTKVEIKRTVAAPSVFIFPPSDEQLKSGTASVVCLLNNFYPREAKVQWKVDNALQSGNSQESVTEQDSKDSTYSLSSTLTLSKADYEKHKVYACEVTHQGLSSPVTKSFNRGEC","MHCII surface expression on PBMCs, ratio to SEA-h00; SEA-CD40 0.0001 µg/mL, 6 hrs",[1],0.85 fold
same,"MHCII surface expression on PBMCs, ratio to SEA-h00; SEA-CD40 0.0001 µg/mL, 24 hrs",[1],1.05 fold
same,"MHCII surface expression on PBMCs, ratio to SEA-h00; SEA-CD40 0.0001 µg/mL, 48 hrs",[1],0.99 fold
same,"MHCII surface expression on PBMCs, ratio to SEA-h00; SEA-CD40 0.001 µg/mL, 6 hrs",[1],1 fold
same,"MHCII surface expression on PBMCs, ratio to SEA-h00; SEA-CD40 0.001 µg/mL, 24 hrs",[1],1.07 fold
same,"MHCII surface expression on PBMCs, ratio to SEA-h00; SEA-CD40 0.001 µg/mL, 48 hrs",[1],1.1 fold
same,"MHCII surface expression on PBMCs, ratio to SEA-h00; SEA-CD40 0.01 µg/mL, 6 hrs",[1],0.9 fold
same,"MHCII surface expression on PBMCs, ratio to SEA-h00; SEA-CD40 0.01 µg/mL, 24 hrs",[1],1.21 fold
same,"MHCII surface expression on PBMCs, ratio to SEA-h00; SEA-CD40 0.01 µg/mL, 48 hrs",[1],1.38 fold
same,"MHCII surface expression on PBMCs, ratio to SEA-h00; SEA-CD40 0.1 µg/mL, 6 hrs",[1],0.9 fold
same,"MHCII surface expression on PBMCs, ratio to SEA-h00; SEA-CD40 0.1 µg/mL, 24 hrs",[1],1.19 fold
same,"MHCII surface expression on PBMCs, ratio to SEA-h00; SEA-CD40 0.1 µg/mL, 48 hrs",[1],1.5 fold
same,"MHCII surface expression on PBMCs, ratio to SEA-h00; SEA-CD40 1 µg/mL, 6 hrs",[1],1.14 fold
same,"MHCII surface expression on PBMCs, ratio to SEA-h00; SEA-CD40 1 µg/mL, 24 hrs",[1],1.76 fold
same,"MHCII surface expression on PBMCs, ratio to SEA-h00; SEA-CD40 1 µg/mL, 48 hrs",[1],1.57 fold
same,"MHCII surface expression on PBMCs, ratio to SEA-h00; SEA-CD40 10 µg/mL, 6 hrs",[1],1.1 fold
same,"MHCII surface expression on PBMCs, ratio to SEA-h00; SEA-CD40 10 µg/mL, 24 hrs",[1],1.62 fold
same,"MHCII surface expression on PBMCs, ratio to SEA-h00; SEA-CD40 10 µg/mL, 48 hrs",[1],2.1 fold
same,"MHCII surface expression on PBMCs, ratio to SEA-h00; SEA-CD40 100 µg/mL, 6 hrs",[1],1.13 fold
same,"MHCII surface expression on PBMCs, ratio to SEA-h00; SEA-CD40 100 µg/mL, 24 hrs",[1],1.64 fold
same,"MHCII surface expression on PBMCs, ratio to SEA-h00; SEA-CD40 100 µg/mL, 48 hrs",[1],2.1 fold
same,EC50 of CD86 upregulation on PBMCs (24 hr),[2],0.14 µg/mL
same,EC50 of MHCI upregulation on PBMCs (48 hr),[2],0.011 µg/mL
same,EC50 of MHCII upregulation on PBMCs (24 hr),[2],0.41 µg/mL
same,Kd,[3],27.5 nM
same,Kd,[4],5.2 nM
same,binding result,murine CD40,no binding
"dacetuzumab (fucosylated humanized S2C6) (antibody, human IgG1, kappa, also called SGN-40; SGN40; copies: 2 + 2) heavy: not shown light: DIQMTQSPSSLSASVGDRVTITCRSSQSLVHSNGNTFLHWYQQKPGKAPKLLIYTVSNRFSGVPSRFSGSGSGTDFTLTISSLQPEDFATYFCSQTTHVPWTFGQGTKVEIKRTVAAPSVFIFPPSDEQLKSGTASVVCLLNNFYPREAKVQWKVDNALQSGNSQESVTEQDSKDSTYSLSSTLTLSKADYEKHKVYACEVTHQGLSSPVTKSFNRGEC",Kd,[3],303 nM
same,Kd,[4],37.9 nM

# Reference: patent publication US20240075134A1 (Seagen, published 2024)
